In doi:10.1101/2023.07.20.548338:

Biological target: GLS1 (endogenous; both KGA and GAC, not told apart) (UniProt D3Z7P3)
Experiment: IP of endogenous GLS1, PDZD8 blot
Settings: reference: wild-type PDZD8, glucose-starved cells; sites T527

Q: With “PDZD8 (from UniProt Q8NEN9) PDZD8-T527A, glucose-starved cells” as the substance, how does the “binding against the reference” value read?
A: weaker
